Measurements from the supplement of paper PMC7125110.
± gives the standard error. This sample holds only a part of the variants without activity.

B1: glmS ribozyme (parent)
chain: AUAAAAGCGCCAGAACUACAGAAAUGUAGUUGACGAGGAGGAGGUUUAUCGAAUUUUCGGCGGAUGCCUCCAAA

Legend:
Details in all cases: with glucosamine-6-phosphate
[1] = variants of: B1; test: self-cleavage kobs at 640 uM GlcN6P; higher = faster cleavage; RNA array
Method in brief: (§1)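 Barcoded glmS ribozyme variants on sequenced MiSeq chips were transcribed in situ by E. coli RNA polymerase and tracked through a hybridised Cy3 probe at 37 °C. Glucosamine-6-phosphate (40 μM to 10 mM) in HEPES/KCl/Mg(OAc)2 buffer was flowed in, and tiles were imaged over ~14 h. Signals were normalised to baseline and to non-cleaving reference variants; per-tile medians were fit to one- or two-exponential decays to give kobs. kcat and KM came from weighted Michaelis–Menten fits across concentrations.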

[2] = variants of: B1; test: self-cleavage kobs at 2500 uM GlcN6P; higher = faster cleavage; RNA array
Method in brief: as §1

[3] = variants of: B1; test: self-cleavage kobs at 10000 uM GlcN6P; higher = faster cleavage; RNA array
Method in brief: as §1

Variant | self-cleavage kobs at 640 uM GlcN6P [1] [s⁻¹] | self-cleavage kobs at 2500 uM GlcN6P [2] [s⁻¹] | self-cleavage kobs at 10000 uM GlcN6P [3] [s⁻¹]
A14C G40U U56G U65A C71U | 0.000351 ± 6.7e-05 | 0.00117 ± 0.00023 | 
G13A G35C G51U | < 1e-05 |  | 
A14U A53U C67G | 0.000162 ± 4.5e-05 |  | 
A14U G35A G63U | < 1e-05 |  | 
A15U U30A G32C U56C U57C C61G | < 1e-05 | < 1e-05 | 
A14C U31G G32A C70G | 6.55e-05 ± 1.4e-05 | 8.05e-05 ± 2e-05 | 
C19U U46A | 0.0011 ± 0.00031 | 0.0021 ± 0.00075 | 
A12G A14G U57A C68A U69G | 0.000246 ± 8e-05 | 7.01e-05 ± 3.5e-05 | 
G13U C16U G37U U47G U57A C58U G60U | < 1e-05 |  | 
C16A A52G C70U | 0.00109 ± 0.00029 |  | 
A12G G26U G41U U47C C70G | 0.000117 ± 5.2e-05 |  | 
A15U C16G U46C | < 1e-05 |  | 
A14G A15G U31G U45G C61G | < 1e-05 | < 1e-05 | 
A12U G44U U45C C70G | < 1e-05 |  | 
A12C G32U | 5.84e-05 ± 2.3e-05 | 8.84e-05 ± 1.6e-05 | 0.000265 ± 5e-05
A15C A64C C71U | < 1e-05 |  | 
G13A A53C | 4.8e-05 ± 1.4e-05 | 3.79e-05 ± 1.2e-05 | 0.000139 ± 1.3e-05
A12G G29A U30A U45G G62A C71U | < 1e-05 | < 1e-05 | 
A15G G29U C70U | 0.000127 ± 2.4e-05 | 9.76e-05 ± 3.9e-05 | 
A15G G29U C70G | 0.000143 ± 5e-05 | 9.63e-05 ± 3.6e-05 | 
A14C G40C G41C G44C | < 1e-05 | < 1e-05 | 
A14C A42U G63A | < 1e-05 |  | 
C16G G62U G66C | < 1e-05 |  | 
C16U A53U G66C | 9.89e-05 ± 2.1e-05 | 0.000105 ± 2.8e-05 | 0.000199 ± 5.3e-05
A14C A64U C67U | < 1e-05 |  | 
A14G A36U G41A | < 1e-05 | < 1e-05 | < 1e-05
G13A C61U | < 1e-05 | < 1e-05 | < 1e-05
A14C U30A G63A C67A | < 1e-05 |  | 
C16A U30G G35A C50A | < 1e-05 |  | < 1e-05
A12U C16U G63U G66C | < 1e-05 | < 1e-05 | 
